# According to patent US20160243521A1:
# What was measured:
# [1] = target: human polyclonal IgG (Gamma-globulin NICHIYAKU, NIHON PHARMACEUTICAL CO., LTD.) (human); assay: column dynamic binding capacity at 5% breakthrough, residence time 3 min (Test example 2); Protein A 35 g/L on cellulose beads made without crosslinking agent in the dispersion
# [2] = target: human polyclonal IgG (Gamma-globulin NICHIYAKU, NIHON PHARMACEUTICAL CO., LTD.) (human); assay: column dynamic binding capacity at 5% breakthrough, residence time 3 min (Test example 2); Protein A 35 g/L on cellulose beads made with crosslinking agent EX-314
substance,measurement,setting,value
non-orientation-controlled Protein A (from UniProt P38507 37-327) (ligand),5% DBC at RT of 3 min (g per 1 L of the filling adsorbent),[1],49
same,5% DBC at RT of 3 min (g per 1 L of the filling adsorbent),[2],65
